assay: soluble on expression in E. coli; label from the status in PepcDB or PDB records

Sequence | soluble on expression in E. coli
MRYLTAGESHGPRLTAIIEGIPAGLPLTAEDINEDLRRRQGGYGRGGRMKIENDQVVFTSGVRHGKTTGAPITMDVINKDHQKWLDIMSAEDIEDRLKSKRKITHPRPGHADLVGGIKYRFDDLRNSLERSSARETTMRVAVGAVAKRLLAELDMEIANHVVVFGGKEIDVPENLTVAEIKQRAAQSEVSIVNQEREQEIKDYIDQIKRDGDTIGGVVETVVGGVPVGLGSYVQWDRKLDARLAQAVVSINAFKGVEFGLGFEAGYRKGSQVMDEILWSKEDGYTRRTNNLGGFEGGMTNGQPIVVRGVMKPIPTLYKPLMSVDIETHEPYKATVERSDPTALPAAGMVMEAVVATVLAQEILEKFSSDNLEELKEAVAKHRDYTKNY | soluble
MRYTMDIEFSQIHEMVYMHDIVNSDSKKKPRIPLKKFLNAENVLTQTTSWTLNSRYVNVNSVNKVNVKSKVKNSYISRSVNDEFSLTDDEINSFKETLVLSSIDSLSKLVLNNPLSVLFTSTVRRNNNRAKMNVEFDSWICTRCCLEHHHHHH | soluble
MSAAEIDEGVFETTATIDNGSFGTRTIRFETGRLALQAAGAVVAYLDDDNMLLSATTASKNPKEHFDFFPLTVDVEERMYAAGRIPGSFFRREGRPSTDAILTCRLIDRPLRPSFVDGLRNEIQIVVTILSLDPGDLYDVLAINAASASTQLGGLPFSGPIGGVRVALIDGTWVGFPTVDQIERAVFDMVVAGRIVEGDVAIMMVEAEATENVVELVEGGAQAPTESVVAAGLEAAKPFIAALCTAQQELADAAGKSGKPTVDFPVFPDYGEDVYYSVSSVATDELAAALTIGGKAERDQRIDEIKTQVVQRLADTYEGREKEVGAALRALTKKLVRQRILTDHFRIDGRGITDIRALSAEVAVVPRAHGSALFERGETQILGVTTLDMIKMAQQIDSLGPETSKRYMHHYNFPPFSTGETGRVGSPKRREIGHGALAERALVPVLPSVEEFPYAIRQVSEALGSNGSTSMGSVCASTLALLNAGVPLKAPVAGIAMGLVSDDIQVEGAVDGVVERRFVTLTDILGAEDAFGDMDFKVAGTKDFVTALQLDTKLDGIPSQVLAGALEQAKDARLTILEVMAEAIDRPDEMSPYAPRVTTIKVPVDKIGEVIGPKGKVINAITEETGAQISIEDDGTVFVGATDGPSAQAAIDKINAIANPQLPTVGERFLGTVVKTTDFGAFVSLLPGRDGLVHISKLGKGKRIAKVEDVVNVGDKLRVEIADIDKRGKISLILVADEDSTAAATDAATVTS | not soluble
MSAAQYARLVPKKYRSKTLPKIDRPWRPRVIAWAGPAAFYPNRFYEVDKWYKARIDKPEKLPEMHIIEPAEHMKSLKVLMQKSEIEQINIGFKRREVAGKAEKSAEDRIELERKSRHMQLKIDIDHLDVENLSIYRHFQVFDHLFGDNIFFENVQNLQVNFENDIVVHSGNVITANSTLKRPEITIESVGNGGGFNTLLMINLDGNALDLGKNGEIVQWMISNIPDGEAISAGSEIIDYLQPLPFYGTGYHRVAFVLFRHEKPVDFQIQGNSLDTRIHEISKFYKKHEATITPSAIRFFQTSYDNSVKMALHGLGMTSPLYEYEHRPALKPAQREFPEKPQPFDLYLDMYRDPKEVEQEMLEKRLAEVKLDYVKEPKWVDTDYVENKKKLPAWLHAKKLERDGVGHAKYHNDL | not soluble
MSAASEAVSGALFQHLFRIFSLFADQNEKGTFKPAQAEFLIDELLRELRRQTTPKVHDLPENVTFNEFLNLLQVIFPDREDLLIATNRVFERYVNHVIGKGFVLFRKLSQKRGCLPFKRRTEDWQFGWLQVLPGVAEIRKQNSDIDDIIQFDEDTVIEPPVIDEDASVWSVICNSTTAFQFSHLDPIMAQLFVKGFLTYWKLNLKYFFSDMRSARDFPTREELAVFDYKRSLKSRPTKEGKSRKELETERCRLESELEEEKKNRKDEEIVRGLTTRLLKQEMEKSEQMQQVIYELRSKLDNGENEAGVDDEDIVDVEMIEDEISEDVGENEEISITLPSREEKIQQYAYHLYATQAEEHVTSDDEEIWKQNYNLIVSTHFTDTMWKSCKPIVYCSEIVSQIVNQSPFIFLINLNNDLHNRATLGLTTYLVSYRFPCSFFLIELKMTKLRVGFIGYGHLGKFLVEKLRLLPEEFEIVKIWNRSVGEPGVQGLETLTAENLKDIDLVVEVAHPKIIADYGELILEHCDLFAGSPTCFANQELLEKLTKLSLSHGKKLLIPAGALWGANDIQKMADVGSLKGLTVTMIKHPTSFKLGSPLFEINEKAKLEETNETVLYEGSVRGLCPLAPNNVNTMAGGALAASNLGFDEVKAKLISDPKMTDWHVVEVRVEGDDGFEVITRRNNPAKPGAVTGQLTYYSFLSSIKESRYKPIGVQLC | not soluble
MSADAYHPPTTSPRLETLDVLSIGMSLDVFRQGQVWKALQEQNAAQAEALHVGSILPMDPKKYPTSADDKDMAYEKRQADALELGLKNFLEKWPIPTVTVVRGWDPSTPNLRFTPEETRESLSVKVNDLRVPAGLHWHRIANLQDGIICNDTPEGVLEALFSLFERNPDLPAVLVYANEGISMAGALSSRDVTLKSLGAVSGPRIPGTLTDAMVALIVGRPERVDWLRQFAPYTKVNENRIDPEFRGWGWRKPPVEFRPTPFIPQPWTERALEQWDALPVLARLHRPVSVPLTHPDTGERLKREALTAQLAAAWKTASAGLRPAPARLFYDGGLNATPLAELTPALGAAQSSLDLLDSRESYDLTQRLGDTGAASPFVGITLATMASYLNGDSSMVMPLRRKDQATLIGISSPTPGKKPVHDPFGVDLLPQTASGDGPPPSADPVAPASRLTTRLPPGEDYALEEFLSSLKPSTDWQDDL | not soluble
MSADENNLIWIDLEMTGLDPERDRIIEIATLVTDASLNILAEGPTIAVHQSDAQLALMDDWNVRTHTGSGLVDRVKASTMGERDAELATIEFLKTWVPAGKSPICGNSIGQDRRFLFKYMPELEAYFHYRYLDVSTLKELARRWKPEILAGFTKQGTHQAMDDIRESVAELAYYREHFIKL | not soluble
MSAFDIVLREGTVVDGTGADPFVADVAISGGRIAAIGPNLSRGTTEINASGQIVTPGFVDLHTHYDGQVTWDNRLAPSSYHGVTTAVIGNCGVGFAPCRRDAASRDAMVRLMEGVEDIPHPVLTEGLPWTWETFPDYLDFLASRTYDIDVAAYVPHAPLRVYVMGQRGADREPATQTDIAEMCRLLEQALDRGALGIATSRSLFHRSSDGTAIPTYQAAQAELMAFAEVLRAKGKGVFQIVEDIHVPGASLDNMRELARTSGRPLTFSIGTGNTGPYGYPRLLDELAAANAEGLVMKGQLMPRGIGMILGFELTLNPFYTTSTFARLAPLPLAERLEQLRRPEIRAAILSEPMDPDPALVLGRAVRDFDHMFLLGDDPDYEQPPERSIAGRAREAGITPEELAYDVMTEGESGGLLYLAMANYADGSLDAVGDILSHPDVVLGLGDGGAHVGTICDASYSTFALCHWARDRQRGRKTVADMVHRMTQATARVIGLEDRGELAVGKRADINVIDLAQLALRPPQVCHDLPAGGRRLIQRATGYSLTMLAGEIVLRDDEPTGLLPGRLIRASLEHHHHHH | not soluble
MSAFFLNMEKSIITQKIIAKAFKDLMQSNAYHQISVSDIMQTAKIRRQTFYNYFQNQEELLSWIFENDFAELINDNSDYYGWQNELLLLLRYLDENQIFYQKIFVIDKNFEHFFLIQWENLLDKVIFDQEKKSDYHWSDLEKSFICRYNAAAICAITRESIIRGNSLEKLYSQIVNLLLAQIKIFESLEHHHHHH | soluble
MSAFPVHAAFEKDFLVQLVVVDLNDSMDQVAEKVAYHCVNRRVAPREGVMRVRKHRSTELFPRDMTIAESGLNPTEVIDVVFEE | soluble
MSAFYQIFHDTHYKYDTPVSLAQQLAHLWPRSSPWQRCTEQALEIFPAPTTRRDELDVFGNPLTRLAFERPHDELQVNARLRIEVLERPQLDFNLSPEWEVTRNALTYSAKPMTEDILEACRYRFESPYVHLKRSFVEFSQDCFPVGRPLLLGVQALMEKIFDEFTFDEEATQVATPLVEVLESRRGVCQDFAHLMLACLRSRGLAARYVSGYLLTQPPPGQPRLIGADASHAWVSVFCPASGWVDFDPTNNVQPALEHISLAWGRDFSDVSPLRGVILGGGSHDPDVRVTVMPVSA | not soluble
MSAIPAEESDQLLIRPLGAGQEVGRSCIILEFKGRKIMLDCGIHPGLEGMDALPYIDLIDPAEIDLLLISHFHLDHCGALPWFLQKTSFKGRTFMTHATKAIYRWLLSDYVKVSNISADDMLYTETDLEESMDKIETINFHEVKEVAGIKFWCYHAGHVLGAAMFMIEIAGVKLLYTGDFSRQEDRHLMAAEIPNIKPDILIIESTYGTHIHEKREEREARFCNTVHDIVNRGGRGLIPVFALGRAQELLLILDEYWQNHPELHDIPIYYASSLAKKCMAVYQTYVNAMNDKIRKQININNPFVFKHISNLKSMDHFDDIGPSVVMASPGMMQSGLSRELFESWCTDKRNGVIIAGYCVEGTLAKHIMSEPEEITTMSGQKLPLKMSVDYISFSAHTDYQQTSEFIRALKPPHVILVHGEQNEMARLKAALIREYEDNDEVHIEVHNPRNTEAVTLNFR | soluble
MSALTPPTDMPTPTTDKITQAAMETIYLCKFRVSMDGEWLCLRELDDISLTPDPEPTHEDSWEDLTDLVEQVRADPEDPNYLMANERMNLMNMAKLSIKGLIESALNLGRTLDSDYAPLQQFFVVMEHCLKHGLKAKKTFLGQNKSFWGPLELVEKLVPEAAEITASVKDLPGLKTPVGRGRAWLRLALMQKKLSEYMKALINKKELLSEFYEVNALMMEEEGAIIAGLLVGLNVIDANFCMKGEDLDSQVGVIDFSMYLKDGNSSKGSEGDGQITAILDQKNYVEELNRHLNATVNNLQTKVDLLEKSNTKLTEELAVANNRIITLQEEMERVKEESSYLLESNRKGPKKTELQKGKR | soluble
MSAMKKLVVLGGGYGGMRILQRLLPNDLPSDWEITLVDRLPYHCLKTEYYALAAGTASDHHLRVSFPEDPRLSTRYGSVSSIDLASKTVLFEEGEPLTYDTLIIGLGCEDKYHGVPGAKEHTYSIQSMEATRRTYEALNNVRPEGVVTIVGAGLSGVELASELRESRPDLTIKLLDRGDIILSMFPRRLSNYVQNWFIDHGVDIINKSNVTKVEEGAVYNHDERIESDAIIWTAGLEHHHHHH | soluble
MSASETRSKVLTDESTGSTAIEESPRNRQNEEPEQTSQTENLQTDPFNARISEIFEKQTVAFERQMMIKEEEFMSQMKEREEVKLKDLETKLENFEKWRKEIRLEGAKELNIKLHSEPEVSAELEHEGGLQEK | not soluble
MSATRHRSDGHEEIVALDALPLSAAIRRRELSCREVMQAYLAQIERFNPRVNAIVSLQAESRLLTQADERDRQLARGEWLGWMHGMPQAIKDLAATSGIPTTLGSPLFAGQVPEHDAIVVERVKSSGAIVIGKTNVPEFGLGSQTYNPLFGTTRNAYDPARIAGGSSGGAAVALALRMLPVADGSDMMGSLRNPAAYNNVYGFRPSQGRVPHGPQAELFVQQLATEGPMGRSVADLARLLATQAGYDPRCPLSLRDDPRRFADDLGRDFRGARLGWLGDYAGYLPMEEGVLELCEAALGDFAELGCDVEACLPDYPLERLWRTWLVHRQWLVQGSLGELYADPARRVRLKPEAQWEVESGLGLGAAEVYRASLDRSDWYRALARLFERYDFLLLPSAQVFPFDAETAWPRQVAGRPMDTYHRWMEVVIGPTLAGLPAISVPIGFGAAGLPMGLQIIGPAQADLAVLQLAHAHEGLTRWVSRRPPAMLEAPGGI | not soluble
MSATTTNLKEAIVNRRSIRKVTKNDAITKERIEEVLKTALHAPTSFNMQSGRMVVLMDGEHEKFWDIVKETLRARVPAENFEATVERLKGFHAGVGTVLFFEDQATVEKMQENAPLYKDQFPFWSHQGNAMLQHTVWMLLSAEGIGASLQHYNPIVDAEVKETWNIPAEWSLVGQMPFGEPNEQPAERTFLPTEDVVKFY | soluble
MSDAMPLDQTLEQLTQDEWIDIPQGWSQGRTIYGGLVAGLLMHKALSVMNDESKNLLSTSITFVGPVNEGRVRLTVEILRQGKSVTTIEARLWQDQAVQTILIASFGQPRSLEHHHHHH | not soluble

Source: the DeepSol protein solubility set
